Ends that are not written are not given here.
B1: 2C5 nanobody (VHH) with C-terminal myc and six histidine residues tag (VHH)
VHH: QVQLVQSGGGLVQAGGSLRLSCAASGRTFSSDTLAWFRQAPGKEREFVASISPSGGVTYYEDSVKGRFTISRDNSKNTVLLQMNSLTPEDTAVYYCNRDPKYGNTRYWGQGTQVTVSS
notes: also called 2C5 Nb; 2C5 (VHH)
B2: 2C5 nanobody radiolabeled with iodine 125 (VHH)
VHH: B1 VHH
modifications: radiolabeled with iodine 125 (site not stated)

Experiments:
[1] = biological target: T1, Tau protein in fiber form (preparation of htau40 enriched with Tau fibers, 72 h fibrillation with heparin) (Homo sapiens (Human), UniProt P10636 2-758); test: ELISA, 2C5 titrated on a preparation enriched with Tau fibers (Tau-F)
T1 construct: Fibrillar aggregate of full-length htau40; also called Tau-F (Tau fibers); the fibers
T1 sequence (P10636 other isoform, or with tags, fused parts or gaps limits assumed): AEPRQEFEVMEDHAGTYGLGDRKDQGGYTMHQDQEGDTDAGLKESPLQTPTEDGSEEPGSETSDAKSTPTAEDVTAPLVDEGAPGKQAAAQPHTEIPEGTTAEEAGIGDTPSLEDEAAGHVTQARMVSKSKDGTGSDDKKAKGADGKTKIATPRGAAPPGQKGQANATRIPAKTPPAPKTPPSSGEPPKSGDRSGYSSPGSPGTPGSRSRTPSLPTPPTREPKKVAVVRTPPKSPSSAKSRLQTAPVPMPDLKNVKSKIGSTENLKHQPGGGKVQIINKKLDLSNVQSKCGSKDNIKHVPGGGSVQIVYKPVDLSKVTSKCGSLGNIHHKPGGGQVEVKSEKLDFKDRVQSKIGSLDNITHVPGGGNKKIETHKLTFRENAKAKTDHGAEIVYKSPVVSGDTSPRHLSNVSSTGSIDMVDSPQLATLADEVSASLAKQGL

[2] = biological target: T1, Tau protein in fiber form (preparation …); test: ELISA on preparation enriched with Tau fibers
[3] = biological target: T2, truncated Tau protein in fiber form (polymerized R3 peptide) (also: polymerized (fiber form)); test: ELISA on polymerized R3 peptide
T2 construct: also called R3 peptide fibers; Mimetics (the R3 region of polymerized Tau)
T2 peptide: VQIVYKPVDLSKVTSKCG

[4] = biological target: T2, truncated Tau protein in fiber form …; test: ELISA, 2C5 titrated on polymerized R3 peptide (Mimes)
[5] = biological target: T3, Tau protein in oligomer form (preparation of htau40 enriched with Tau oligomers, 48 h fibrillation with … (Homo sapiens (Human), UniProt P10636 2-758)); test: ELISA on preparation enriched with Tau oligomers
T3 construct: Oligomeric aggregate of full-length htau40; also called the oligomers; low-molecular-weight tau polymers
T3 sequence (P10636 other isoform, or with tags, fused parts or gaps limits assumed): as above

[6] = biological target: T4, native Tau protein (monomeric form) (Homo sapiens (Human), UniProt P10636 2-758); test: ELISA, 2C5 titrated on native Tau (Tau-N)
T4 construct: also called Tau-N (native taus); Tau in monomer form
T4 sequence (P10636 other isoform, or with tags, fused parts or gaps limits assumed): as above

[7] = biological target: T3, Tau protein in oligomer form …; test: ELISA, 2C5 titrated on a preparation enriched with Tau oligomers (Tau-O)
[8] = biological target: T2, truncated Tau protein in fiber form …; test: ELISA, unlabeled 2C5 titrated on polymers of the R3 sequence of Tau (R3 Fibers), PBS with 1% BSA, pH 7.5; PBS wells as control
Protocol: (§1) The ELISAs are carried out before (FIG. 5) and after (FIG. 6) radiolabeling. It is noted that, after radiolabeling, the ligand retains good affinity for its target (FIG. 6).

[9] = biological target: T2, truncated Tau protein in fiber form …; test: ELISA-format assay with 2C5 radiolabeled with iodine 125 on polymers of the R3 sequence of Tau, CPM readout (sheet title: RIA 125I 2C5), PBS with 1% BSA, pH 7.5; PBS wells as control
Protocol: as §1

Row | Kd [1] [nM] | Kd [2] [nM] | Kd [3] [nM] | EC50 (read off the curve) [4] [nM] | Kd [4] [nM] | Kd [5] [nM] | Kd [6] [nM] | Kd [7] [nM] | Kd [8] [nM] | Kd [9] [nM] | Binder
1 | 5.02 | 6 | 50 | ~50 | 51.8 | 5 | 1790 | 6.28 | 14.4 | – | B1
2 | – | – | – | – | – | – | – | – | – | 162 | B2

Source: patent US20190263898A1 (UNIVERSITE GRENOBLE ALPES, published 2019)
